Experimental data reported in the RNAGym collection of RNA variant scans (doi:10.1021/acssynbio.7b00057).

B1: Pistol ribozyme (parent)
chain: GGGUCGUUGUUCCAUAAUCGCGUGGAUAUGGCACGCAAGUUUCUACCGGGCACCGUAAAUGUCCGACUGGAGCCGUUCGGGCGGCUAUAAACAGACCUCAGGCCCGAAGCGUGGCGGCACCUGCCGCCGGUGGUAAAAAAGAUCGGAAGAGCACACGUCU

Variants of: B1
Assay: aptazyme ON/OFF ratio, guanine; higher = stronger switching; co-transcriptional cleavage with and without guanine

| Variant | aptazyme ON/OFF ratio |
| --- | --- |
| GGGUCGUGGUUCCAUAAUCGCGUGGAUAUGGCACGCAAGUUUCUACCGGGCACCGUAAAUGUCCGACUGGAGCCGUUCGGGCGGCUAUAAACAGACCUCAGGCCCGAAGCGUGGCGGCACCUGCCGCCGGUGGUAAAAAAGAUCGGAAGAGCACACGUCU [U8G] | 3.01 |
| GGGUCGUCGUGAAAUAAUCGCGUGGAUAUGGCACGCAAGUUUCUACCGGGCACCGUAAAUGUCCGACUGGAGCCGUUCGGGCGGCUAUAAACAGACCUCAGGCCCGAAGCGUGGCGGCACCUGCCGCCGGUGGUAAAAAAGAUCGGAAGAGCACACGUCU [U8C U11G C12A C13A] | 1.16 |
| GGGUCGUCGUGAUAUAAUCGCGUGGAUAUGGCACGCAAGUUUCUACCGGGCACCGUAAAUGUCCGACUGGAGCCGUUCGGGCGGCUAUAAACAGACCUCAGGCCCGAAGCGUGGCGGCACCUGCCGCCGGUGGUAAAAAAGAUCGGAAGAGCACACGUCU [U8C U11G C12A C13U] | 1.16 |
| GGGUCGUCGUGAGAUAAUCGCGUGGAUAUGGCACGCAAGUUUCUACCGGGCACCGUAAAUGUCCGACUGGAGCCGUUCGGGCGGCUAUAAACAGACCUCAGGCCCGAAGCGUGGCGGCACCUGCCGCCGGUGGUAAAAAAGAUCGGAAGAGCACACGUCU [U8C U11G C12A C13G] | 1.16 |
| GGGUCGUGGUUGGAUAAUCGCGUGGAUAUGGCACGCAAGUUUCUACCGGGCACCGUAAAUGUCCGACUGGAGCCGUUCGGGCGGCUAUAAACAGACCUCAGGCCCGAAGCGUGGCGGCACCUGCCGCCGGUGGUAAAAAAGAUCGGAAGAGCACACGUCU [U8G C12G C13G] | 1.15 |
| GGGUCGUGGUUGAAUAAUCGCGUGGAUAUGGCACGCAAGUUUCUACCGGGCACCGUAAAUGUCCGACUGGAGCCGUUCGGGCGGCUAUAAACAGACCUCAGGCCCGAAGCGUGGCGGCACCUGCCGCCGGUGGUAAAAAAGAUCGGAAGAGCACACGUCU [U8G C12G C13A] | 1.2 |
| GGGUCGUGGUUGUAUAAUCGCGUGGAUAUGGCACGCAAGUUUCUACCGGGCACCGUAAAUGUCCGACUGGAGCCGUUCGGGCGGCUAUAAACAGACCUCAGGCCCGAAGCGUGGCGGCACCUGCCGCCGGUGGUAAAAAAGAUCGGAAGAGCACACGUCU [U8G C12G C13U] | 1.55 |
| GGGUCGUCGUGGAAUAAUCGCGUGGAUAUGGCACGCAAGUUUCUACCGGGCACCGUAAAUGUCCGACUGGAGCCGUUCGGGCGGCUAUAAACAGACCUCAGGCCCGAAGCGUGGCGGCACCUGCCGCCGGUGGUAAAAAAGAUCGGAAGAGCACACGUCU [U8C U11G C12G C13A] | 1.13 |
| GGGUCGUCGUGGUAUAAUCGCGUGGAUAUGGCACGCAAGUUUCUACCGGGCACCGUAAAUGUCCGACUGGAGCCGUUCGGGCGGCUAUAAACAGACCUCAGGCCCGAAGCGUGGCGGCACCUGCCGCCGGUGGUAAAAAAGAUCGGAAGAGCACACGUCU [U8C U11G C12G C13U] | 1.11 |
| GGGUCGUCGUGGGAUAAUCGCGUGGAUAUGGCACGCAAGUUUCUACCGGGCACCGUAAAUGUCCGACUGGAGCCGUUCGGGCGGCUAUAAACAGACCUCAGGCCCGAAGCGUGGCGGCACCUGCCGCCGGUGGUAAAAAAGAUCGGAAGAGCACACGUCU [U8C U11G C12G C13G] | 1.19 |
| GGGUCGUCGUGCCAUAAUCGCGUGGAUAUGGCACGCAAGUUUCUACCGGGCACCGUAAAUGUCCGACUGGAGCCGUUCGGGCGGCUAUAAACAGACCUCAGGCCCGAAGCGUGGCGGCACCUGCCGCCGGUGGUAAAAAAGAUCGGAAGAGCACACGUCU [U8C U11G] | 1.26 |
| GGGUCGUGGUUUGAUAAUCGCGUGGAUAUGGCACGCAAGUUUCUACCGGGCACCGUAAAUGUCCGACUGGAGCCGUUCGGGCGGCUAUAAACAGACCUCAGGCCCGAAGCGUGGCGGCACCUGCCGCCGGUGGUAAAAAAGAUCGGAAGAGCACACGUCU [U8G C12U C13G] | 1.4 |
| GGGUCGUGGUUUAAUAAUCGCGUGGAUAUGGCACGCAAGUUUCUACCGGGCACCGUAAAUGUCCGACUGGAGCCGUUCGGGCGGCUAUAAACAGACCUCAGGCCCGAAGCGUGGCGGCACCUGCCGCCGGUGGUAAAAAAGAUCGGAAGAGCACACGUCU [U8G C12U C13A] | 1.23 |
| GGGUCGUGGUUUUAUAAUCGCGUGGAUAUGGCACGCAAGUUUCUACCGGGCACCGUAAAUGUCCGACUGGAGCCGUUCGGGCGGCUAUAAACAGACCUCAGGCCCGAAGCGUGGCGGCACCUGCCGCCGGUGGUAAAAAAGAUCGGAAGAGCACACGUCU [U8G C12U C13U] | 1.18 |
| GGGUCGUGGUUAAAUAAUCGCGUGGAUAUGGCACGCAAGUUUCUACCGGGCACCGUAAAUGUCCGACUGGAGCCGUUCGGGCGGCUAUAAACAGACCUCAGGCCCGAAGCGUGGCGGCACCUGCCGCCGGUGGUAAAAAAGAUCGGAAGAGCACACGUCU [U8G C12A C13A] | 1.25 |
| GGGUCGUGGUUAGAUAAUCGCGUGGAUAUGGCACGCAAGUUUCUACCGGGCACCGUAAAUGUCCGACUGGAGCCGUUCGGGCGGCUAUAAACAGACCUCAGGCCCGAAGCGUGGCGGCACCUGCCGCCGGUGGUAAAAAAGAUCGGAAGAGCACACGUCU [U8G C12A C13G] | 1.13 |
| GGGUCGUGGUUAUAUAAUCGCGUGGAUAUGGCACGCAAGUUUCUACCGGGCACCGUAAAUGUCCGACUGGAGCCGUUCGGGCGGCUAUAAACAGACCUCAGGCCCGAAGCGUGGCGGCACCUGCCGCCGGUGGUAAAAAAGAUCGGAAGAGCACACGUCU [U8G C12A C13U] | 1.12 |
| GGGUCGUCGUCUGAUAAUCGCGUGGAUAUGGCACGCAAGUUUCUACCGGGCACCGUAAAUGUCCGACUGGAGCCGUUCGGGCGGCUAUAAACAGACCUCAGGCCCGAAGCGUGGCGGCACCUGCCGCCGGUGGUAAAAAAGAUCGGAAGAGCACACGUCU [U8C U11C C12U C13G] | 1.5 |

| Variant | aptazyme ON/OFF ratio |
| --- | --- |
| GGGUCGUCGUCUAAUAAUCGCGUGGAUAUGGCACGCAAGUUUCUACCGGGCACCGUAAAUGUCCGACUGGAGCCGUUCGGGCGGCUAUAAACAGACCUCAGGCCCGAAGCGUGGCGGCACCUGCCGCCGGUGGUAAAAAAGAUCGGAAGAGCACACGUCU [U8C U11C C12U C13A] | 1.19 |
| GGGUCGUCGUCUUAUAAUCGCGUGGAUAUGGCACGCAAGUUUCUACCGGGCACCGUAAAUGUCCGACUGGAGCCGUUCGGGCGGCUAUAAACAGACCUCAGGCCCGAAGCGUGGCGGCACCUGCCGCCGGUGGUAAAAAAGAUCGGAAGAGCACACGUCU [U8C U11C C12U C13U] | 1.33 |
| GGGUCGUCGUGGCAUAAUCGCGUGGAUAUGGCACGCAAGUUUCUACCGGGCACCGUAAAUGUCCGACUGGAGCCGUUCGGGCGGCUAUAAACAGACCUCAGGCCCGAAGCGUGGCGGCACCUGCCGCCGGUGGUAAAAAAGAUCGGAAGAGCACACGUCU [U8C U11G C12G] | 1.23 |
| GGGUCGUCGUGACAUAAUCGCGUGGAUAUGGCACGCAAGUUUCUACCGGGCACCGUAAAUGUCCGACUGGAGCCGUUCGGGCGGCUAUAAACAGACCUCAGGCCCGAAGCGUGGCGGCACCUGCCGCCGGUGGUAAAAAAGAUCGGAAGAGCACACGUCU [U8C U11G C12A] | 1.15 |
| GGGUCGUCGUGUCAUAAUCGCGUGGAUAUGGCACGCAAGUUUCUACCGGGCACCGUAAAUGUCCGACUGGAGCCGUUCGGGCGGCUAUAAACAGACCUCAGGCCCGAAGCGUGGCGGCACCUGCCGCCGGUGGUAAAAAAGAUCGGAAGAGCACACGUCU [U8C U11G C12U] | 1.26 |
| GGGUCGUCGUGUUAUAAUCGCGUGGAUAUGGCACGCAAGUUUCUACCGGGCACCGUAAAUGUCCGACUGGAGCCGUUCGGGCGGCUAUAAACAGACCUCAGGCCCGAAGCGUGGCGGCACCUGCCGCCGGUGGUAAAAAAGAUCGGAAGAGCACACGUCU [U8C U11G C12U C13U] | 1.17 |
| GGGUCGUCGUGUGAUAAUCGCGUGGAUAUGGCACGCAAGUUUCUACCGGGCACCGUAAAUGUCCGACUGGAGCCGUUCGGGCGGCUAUAAACAGACCUCAGGCCCGAAGCGUGGCGGCACCUGCCGCCGGUGGUAAAAAAGAUCGGAAGAGCACACGUCU [U8C U11G C12U C13G] | 1.07 |
| GGGUCGUCGUGUAAUAAUCGCGUGGAUAUGGCACGCAAGUUUCUACCGGGCACCGUAAAUGUCCGACUGGAGCCGUUCGGGCGGCUAUAAACAGACCUCAGGCCCGAAGCGUGGCGGCACCUGCCGCCGGUGGUAAAAAAGAUCGGAAGAGCACACGUCU [U8C U11G C12U C13A] | 1.08 |
| GGGUCGUCGUCCAAUAAUCGCGUGGAUAUGGCACGCAAGUUUCUACCGGGCACCGUAAAUGUCCGACUGGAGCCGUUCGGGCGGCUAUAAACAGACCUCAGGCCCGAAGCGUGGCGGCACCUGCCGCCGGUGGUAAAAAAGAUCGGAAGAGCACACGUCU [U8C U11C C13A] | 1.21 |
| GGGUCGUCGUCCUAUAAUCGCGUGGAUAUGGCACGCAAGUUUCUACCGGGCACCGUAAAUGUCCGACUGGAGCCGUUCGGGCGGCUAUAAACAGACCUCAGGCCCGAAGCGUGGCGGCACCUGCCGCCGGUGGUAAAAAAGAUCGGAAGAGCACACGUCU [U8C U11C C13U] | 1.19 |
| GGGUCGUCGUCCGAUAAUCGCGUGGAUAUGGCACGCAAGUUUCUACCGGGCACCGUAAAUGUCCGACUGGAGCCGUUCGGGCGGCUAUAAACAGACCUCAGGCCCGAAGCGUGGCGGCACCUGCCGCCGGUGGUAAAAAAGAUCGGAAGAGCACACGUCU [U8C U11C C13G] | 1.11 |
| GGGUCGUCGUGCUAUAAUCGCGUGGAUAUGGCACGCAAGUUUCUACCGGGCACCGUAAAUGUCCGACUGGAGCCGUUCGGGCGGCUAUAAACAGACCUCAGGCCCGAAGCGUGGCGGCACCUGCCGCCGGUGGUAAAAAAGAUCGGAAGAGCACACGUCU [U8C U11G C13U] | 1.17 |
| GGGUCGUCGUGCAAUAAUCGCGUGGAUAUGGCACGCAAGUUUCUACCGGGCACCGUAAAUGUCCGACUGGAGCCGUUCGGGCGGCUAUAAACAGACCUCAGGCCCGAAGCGUGGCGGCACCUGCCGCCGGUGGUAAAAAAGAUCGGAAGAGCACACGUCU [U8C U11G C13A] | 1.05 |
| GGGUCGUCGUGCGAUAAUCGCGUGGAUAUGGCACGCAAGUUUCUACCGGGCACCGUAAAUGUCCGACUGGAGCCGUUCGGGCGGCUAUAAACAGACCUCAGGCCCGAAGCGUGGCGGCACCUGCCGCCGGUGGUAAAAAAGAUCGGAAGAGCACACGUCU [U8C U11G C13G] | 1.06 |
| GGGUCGUGGUUACAUAAUCGCGUGGAUAUGGCACGCAAGUUUCUACCGGGCACCGUAAAUGUCCGACUGGAGCCGUUCGGGCGGCUAUAAACAGACCUCAGGCCCGAAGCGUGGCGGCACCUGCCGCCGGUGGUAAAAAAGAUCGGAAGAGCACACGUCU [U8G C12A] | 1.69 |
| GGGUCGUGGUUGCAUAAUCGCGUGGAUAUGGCACGCAAGUUUCUACCGGGCACCGUAAAUGUCCGACUGGAGCCGUUCGGGCGGCUAUAAACAGACCUCAGGCCCGAAGCGUGGCGGCACCUGCCGCCGGUGGUAAAAAAGAUCGGAAGAGCACACGUCU [U8G C12G] | 1.52 |
| GGGUCGUGGUUUCAUAAUCGCGUGGAUAUGGCACGCAAGUUUCUACCGGGCACCGUAAAUGUCCGACUGGAGCCGUUCGGGCGGCUAUAAACAGACCUCAGGCCCGAAGCGUGGCGGCACCUGCCGCCGGUGGUAAAAAAGAUCGGAAGAGCACACGUCU [U8G C12U] | 1.64 |
| GGGUCGUGGUUCAAUAAUCGCGUGGAUAUGGCACGCAAGUUUCUACCGGGCACCGUAAAUGUCCGACUGGAGCCGUUCGGGCGGCUAUAAACAGACCUCAGGCCCGAAGCGUGGCGGCACCUGCCGCCGGUGGUAAAAAAGAUCGGAAGAGCACACGUCU [U8G C13A] | 1.3 |
